PMC2993495 (Molecular cell, 2009)
Several values for one entry are separate records, joined by “and”; a condition that tells them apart may be missing. Identical values can stand only once.

Key:
[1] = molecular target: His6-tagged wild-type Mms21 (budding yeast (S. cerevisiae)) (UniProt P38632); assay: ITC
[2] = molecular target: Mms21-M1, His6-tagged (budding yeast (S. cerevisiae)) (UniProt P38632); assay: pull-down
Smc5-TAF = molecular target: T1, Smc5-TAF (budding yeast (S. cerevisiae), UniProt Q08204 1-1093); assay: co-IP
T1 sequence (looked up): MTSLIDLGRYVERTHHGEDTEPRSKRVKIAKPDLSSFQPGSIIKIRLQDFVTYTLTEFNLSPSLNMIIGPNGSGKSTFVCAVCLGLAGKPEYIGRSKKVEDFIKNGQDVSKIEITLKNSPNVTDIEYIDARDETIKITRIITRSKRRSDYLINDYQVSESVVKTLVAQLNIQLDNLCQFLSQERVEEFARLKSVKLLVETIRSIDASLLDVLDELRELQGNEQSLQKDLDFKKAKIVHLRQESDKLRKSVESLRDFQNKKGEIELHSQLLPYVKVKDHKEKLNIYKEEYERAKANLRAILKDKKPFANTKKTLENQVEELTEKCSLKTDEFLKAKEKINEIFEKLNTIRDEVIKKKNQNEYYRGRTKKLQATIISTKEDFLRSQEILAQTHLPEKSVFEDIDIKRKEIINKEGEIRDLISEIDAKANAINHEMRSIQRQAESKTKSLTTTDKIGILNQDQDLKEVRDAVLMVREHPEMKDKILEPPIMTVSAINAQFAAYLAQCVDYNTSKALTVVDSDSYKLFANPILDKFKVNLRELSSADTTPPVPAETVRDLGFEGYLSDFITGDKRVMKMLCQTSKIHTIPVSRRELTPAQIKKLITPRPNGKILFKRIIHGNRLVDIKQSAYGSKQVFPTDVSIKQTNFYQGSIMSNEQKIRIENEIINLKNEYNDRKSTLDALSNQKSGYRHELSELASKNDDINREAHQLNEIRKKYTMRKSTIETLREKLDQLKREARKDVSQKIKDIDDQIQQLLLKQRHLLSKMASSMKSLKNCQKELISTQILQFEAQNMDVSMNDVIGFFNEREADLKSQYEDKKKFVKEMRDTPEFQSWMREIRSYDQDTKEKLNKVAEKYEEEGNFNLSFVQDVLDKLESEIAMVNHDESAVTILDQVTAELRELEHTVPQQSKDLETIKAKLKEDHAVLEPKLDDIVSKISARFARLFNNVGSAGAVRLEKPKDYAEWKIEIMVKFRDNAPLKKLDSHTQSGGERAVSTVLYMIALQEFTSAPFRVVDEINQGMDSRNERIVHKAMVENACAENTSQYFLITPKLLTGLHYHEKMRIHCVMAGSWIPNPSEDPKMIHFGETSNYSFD

[3] = molecular target: T2, Mms21, full length (crystallised complex) (budding yeast (S. cerevisiae), UniProt P38632 1-267); assay: crystal structure
T2 sequence (looked up): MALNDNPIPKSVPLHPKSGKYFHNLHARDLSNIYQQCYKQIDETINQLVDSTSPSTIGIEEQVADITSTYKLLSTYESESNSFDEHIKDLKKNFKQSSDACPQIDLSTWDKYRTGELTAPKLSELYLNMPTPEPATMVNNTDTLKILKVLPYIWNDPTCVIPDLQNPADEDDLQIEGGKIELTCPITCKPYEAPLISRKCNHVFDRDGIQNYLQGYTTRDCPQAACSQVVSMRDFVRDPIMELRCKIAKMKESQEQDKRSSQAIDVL

Molecule | Smc5 binding, percent of wild-type (Smc5-TAF) | also measured
GST-Smc5-arm (from UniProt Q08204 302-369; Q08204 733-813) (domain or fragment) |  | dH [1]: -18.2 kcal/mol and -22 kcal/mol; Smc5 binding, percent of wild-type (% of wild-type) [2]: 84
mms21-M1-3HA (natural protein, budding yeast (S. cerevisiae)) MALNDNPIAKSAPAAPKSGKYFHNLHARDLSNIYQQCYKQIDETINQLVDSTSPSTIGIEEQVADITSTYKLLSTYESESNSFDEHIKDLKKNFKQSSDACPQIDLSTWDKYRTGELTAPKLSELYLNMPTPEPATMVNNTDTLKILKVLPYIWNDPTCVIPDLQNPADEDDLQIEGGKIELTCPITCKPYEAPLISRKCNHVFDRDGIQNYLQGYTTRDCPQAACSQVVSMRDFVRDPIMELRCKIAKMKESQEQDKRSSQAIDVL | 5 % of wild-type | 
mms21-M3-3HA (natural protein, budding yeast (S. cerevisiae)) MALNDNPIPKSVPLHPKSGKYFHNLHARDLSNAAQQAYKQIDETINQLVDSTSPSTIGIEEQVADITSTYKLLSTYESESNSFDEHIKDLKKNFKQSSDACPQIDLSTWDKYRTGELTAPKLSELYLNMPTPEPATMVNNTDTLKILKVLPYIWNDPTCVIPDLQNPADEDDLQIEGGKIELTCPITCKPYEAPLISRKCNHVFDRDGIQNYLQGYTTRDCPQAACSQVVSMRDFVRDPIMELRCKIAKMKESQEQDKRSSQAIDVL | 30 % of wild-type | 
mms21-M5-3HA (natural protein, budding yeast (S. cerevisiae)) MALNDNPIPKSVPLHPKSGKYFHNLHARDLSNIYQQCYKQIDETINQLVDSTSPSTIGIEEQVADITSTYKLLSTAESAANSADEHIKDLKKNFKQSSDACPQIDLSTWDKYRTGELTAPKLSELYLNMPTPEPATMVNNTDTLKILKVLPYIWNDPTCVIPDLQNPADEDDLQIEGGKIELTCPITCKPYEAPLISRKCNHVFDRDGIQNYLQGYTTRDCPQAACSQVVSMRDFVRDPIMELRCKIAKMKESQEQDKRSSQAIDVL | 66 % of wild-type | 
Smc5 arm chimera (Asp302-Leu369, Gly-Ser-Gly-Ser linker, Lys733-Gln813), 6xHis-tagged (domain or fragment, budding yeast (S. cerevisiae)) DKKPFANTKKTLENQVEELTEKCSLKTDEFLKAKEKINEIFEKLNTIRDEVIKKKNQNEYYRGRTKKLGSGSKREARKDVSQKIKDIDDQIQQLLLKQRHLLSKMASSMKSLKNCQKELISTQILQFEAQNMDVSMNDVIGFFNEREADLKSQ |  | binding result [3]: binds
